Target: UCH37•RPN13 (UniProt Q16186)
Test: steady-state enzyme inhibition kinetics; cleavage of K6/K48 tri-Ub by UCH37•RPN13 (0.5 μM) with varied Nb-ncS1; 50 mM HEPES pH 7.5, 50 mM NaCl, 1 mM DTT; 37 °C; competitive inhibition fit

UCH37•RPN13, sequence (Q16186 whole entry, looked up): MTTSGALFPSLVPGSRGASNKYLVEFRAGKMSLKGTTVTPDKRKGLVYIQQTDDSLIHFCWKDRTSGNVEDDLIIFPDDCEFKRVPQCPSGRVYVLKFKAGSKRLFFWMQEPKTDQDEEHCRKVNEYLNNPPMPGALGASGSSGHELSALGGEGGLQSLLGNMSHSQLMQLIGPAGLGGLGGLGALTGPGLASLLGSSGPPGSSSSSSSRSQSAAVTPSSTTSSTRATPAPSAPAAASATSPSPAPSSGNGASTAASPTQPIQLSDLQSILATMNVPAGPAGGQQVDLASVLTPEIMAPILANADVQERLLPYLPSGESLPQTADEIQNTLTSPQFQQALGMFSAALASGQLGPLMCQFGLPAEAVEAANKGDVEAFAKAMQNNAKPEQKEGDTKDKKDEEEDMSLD

B1: Nb-ncS1 (His-tagged) (VHH)
VHH: RVQLQESGGGLVQAGGSLRLSCAASGYIFRSYRMGWYRQAPGKERELVAAIGLGGNTYYADSVKGRFTISRDNAKNTVYQQMNSLKPEDTAVYYCAALYGKPPAFSPFPYWGQGTQVTVSS
Question: B1 was tested. Which Ki did it give?
Answer: 120 nM

Reference: doi:10.1101/2025.08.11.669711
